From patent US20040053823

Key:
[1] = system: phage clone A6 (SEQ ID NO:30), MMP-9 substrate
[2] = system: phage clone D12 (SEQ ID NO:31)
[3] = system: phage clone D17 (SEQ ID NO:35)
[4] = system: synthesized polypeptide A6 (contains SEQ ID NO:30)
[5] = system: phage clone D36 (SEQ ID NO:32)
[6] = system: phage clone D5 (SEQ ID NO:34)
[7] = system: variants of three peptides synthesized to contain a Pro at P3
[8] = system: phage clone A11 (SEQ ID NO:29)
[9] = system: synthesized polypeptide A11 (contains SEQ ID NO:29)
[10] = system: the peptides (MMP-9 substrate peptides of Example III)
[11] = system: synthesized polypeptide C15 (contains SEQ ID NO:28)
[12] = system: mutant peptide A11m2 (AC-SGKIPRTATA-NH2, SEQ ID NO:126)
[13] = system: phage clone C15 (SEQ ID NO:28)
[14] = system: phage clone D24 (SEQ ID NO:33)
[15] = system: phage clone B53 (SEQ ID NO:15)
[16] = system: phage clone A3 (SEQ ID NO:24)
[17] = system: phage clone D3 (SEQ ID NO:23)
[18] = system: synthesized polypeptide C9 (SEQ ID NO:10)
[19] = system: phage clone B49 (SEQ ID NO:1)
[20] = system: phage clone A9 (SEQ ID NO:19)
[21] = system: phage clone A45 (SEQ ID NO:25)
[22] = system: synthesized polypeptide B37 (SEQ ID NO:13)
[23] = system: phage clone B79 (SEQ ID NO:5)
[24] = system: synthesized polypeptide A21 (SEQ ID NO:17)
[25] = system: phage clone A43 (SEQ ID NO:8)
[26] = system: phage clone A6 (SEQ ID NO:9), MMP-2 substrate
[27] = system: phage clone A21 (SEQ ID NO:17)
[28] = system: phage clone B74 (SEQ ID NO:2)
[29] = system: phage clone A31 (SEQ ID NO:14)
[30] = system: synthesized polypeptide A13 (SEQ ID NO:12)
[31] = system: phage clone B37 (SEQ ID NO:13)
[32] = system: phage clone B66 (SEQ ID NO:6)
[33] = system: synthesized polypeptide B49 (SEQ ID NO:1)
[34] = system: phage clone B46 (SEQ ID NO:7)
[35] = system: phage clone A34 (SEQ ID NO:11)
[36] = system: synthesized polypeptide A3 (SEQ ID NO:24)
[37] = system: phage clone A13 (SEQ ID NO:12)
[38] = system: phage clone A4 (SEQ ID NO:21)
[39] = system: phage clone A10 (SEQ ID NO:26)
[40] = system: phage clone C6 (SEQ ID NO:22)
[41] = system: phage clone A54 (SEQ ID NO:3)
[42] = system: phage clone A54 (SEQ ID NO:4)
[43] = system: phage clone C5 (SEQ ID NO:18)
[44] = system: phage clone C9 (SEQ ID NO:10)
[45] = system: phage clone C3 (SEQ ID NO:16)
[46] = system: synthesized polypeptide A34 (SEQ ID NO:11)
[47] = system: phage clone A29 (SEQ ID NO:27)
[48] = system: phage clone A21 (SEQ ID NO:20)
[49] = system: synthesized polypeptide B74 (SEQ ID NO:2)

Chain of MMP-2 (recombinant catalytic domain, APMA-activated) (chain, as listed by the source): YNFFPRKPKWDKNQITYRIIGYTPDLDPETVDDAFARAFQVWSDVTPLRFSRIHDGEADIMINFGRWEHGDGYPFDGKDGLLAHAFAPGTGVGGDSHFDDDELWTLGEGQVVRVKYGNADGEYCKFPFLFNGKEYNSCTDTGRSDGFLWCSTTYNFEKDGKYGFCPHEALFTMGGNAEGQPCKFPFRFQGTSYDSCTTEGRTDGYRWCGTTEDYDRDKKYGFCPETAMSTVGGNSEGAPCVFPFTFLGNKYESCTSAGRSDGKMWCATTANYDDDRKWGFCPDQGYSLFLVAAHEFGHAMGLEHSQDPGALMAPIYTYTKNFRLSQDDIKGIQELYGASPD
Chain of MMP-9 (recombinant catalytic domain, APMA-activated) (chain, as listed by the source): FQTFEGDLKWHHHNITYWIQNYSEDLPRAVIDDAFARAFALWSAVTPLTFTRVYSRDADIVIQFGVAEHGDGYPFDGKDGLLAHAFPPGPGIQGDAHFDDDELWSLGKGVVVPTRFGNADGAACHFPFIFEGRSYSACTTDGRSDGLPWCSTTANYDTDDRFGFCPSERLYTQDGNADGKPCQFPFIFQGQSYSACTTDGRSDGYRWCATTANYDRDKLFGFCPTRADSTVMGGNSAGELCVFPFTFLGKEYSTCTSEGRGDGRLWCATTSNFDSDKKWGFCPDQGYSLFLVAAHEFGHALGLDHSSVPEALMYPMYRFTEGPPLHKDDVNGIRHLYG

MMP-9 (recombinant catalytic domain, APMA-activated)
% hydrolysis (substrate phage ELISA) [1]: 100% | % hydrolysis (substrate phage ELISA) [2]: 100% | % hydrolysis (substrate phage ELISA) [3]: 67% | selectivity ratio: kcat/Km for MMP-9 divided by kcat/Km for MMP-7 [4]: 47 | selectivity ratio: kcat/Km for MMP-9 divided by kcat/Km for MMP-13 [4]: 5 | % hydrolysis (substrate phage ELISA) [5]: 91% | % hydrolysis (substrate phage ELISA) [6]: 60% | fold increase of the kcat/Km ratio on inclusion of Pro at P3 [7]: increased the kcat/Km ratio for MMP-9 between three and eleven-fold | % hydrolysis (substrate phage ELISA) [8]: 100% | selectivity ratio: kcat/Km for MMP-9 divided by kcat/Km for MMP-7 [9]: 10 | selectivity ratio: kcat/Km for MMP-9 divided by kcat/Km for MMP-13 [9]: 3 | Km (Michaelis constant) [10]: Km values were generally in the high micromolar to low millimolar range | kcat (first-order rate constant of substrate peptide turnover) [10]: the kcat values ranged from 9 s^-1 to 703 s^-1 | kcat/Km ratio for MMP-9 over that for MMP-7 or MMP-13 [10]: The kcat/Km ratios ranged from 2.6 to 47 fold higher for MMP-9 than for either MMP-7 or MMP-13 | selectivity ratio: kcat/Km for MMP-9 divided by kcat/Km for MMP-7 [11]: 14 | selectivity ratio: kcat/Km for MMP-9 divided by kcat/Km for MMP-13 [11]: 12 | fold reduction of kcat/Km relative to peptide A11 [12]: reduced kcat/Km ratio nearly 30-fold | kcat/Km ratio [12]: measurable kcat/Km ratio (2,000M^-1s^-1) | kcat/Km relative to the parent peptide A11 (mutant peptide A11m1): 2 fold | % hydrolysis (substrate phage ELISA) [13]: 100% | % hydrolysis (substrate phage ELISA) [14]: 85%

MMP-2 (recombinant catalytic domain, APMA-activated)
% hydrolysis (substrate phage ELISA) [15]: 73% | % hydrolysis (substrate phage ELISA) [16]: 100% | % hydrolysis (substrate phage ELISA) [17]: 13% | selectivity ratio: kcat/Km for MMP-2 divided by kcat/Km for MMP-7 [18]: 35 | selectivity ratio: kcat/Km for MMP-2 divided by kcat/Km for MMP-9 [18]: 198 | selectivity ratio: kcat/Km for MMP-2 divided by kcat/Km for MMP-13 [18]: 52 | % hydrolysis (substrate phage ELISA) [19]: 100% | % hydrolysis (substrate phage ELISA) [20]: 50% | % hydrolysis (substrate phage ELISA) [21]: 100% | selectivity ratio: kcat/Km for MMP-2 divided by kcat/Km for MMP-7 [22]: 17 | selectivity ratio: kcat/Km for MMP-2 divided by kcat/Km for MMP-9 [22]: 71 | selectivity ratio: kcat/Km for MMP-2 divided by kcat/Km for MMP-13 [22]: 58 | % hydrolysis (substrate phage ELISA) [23]: 64% | selectivity ratio: kcat/Km for MMP-2 divided by kcat/Km for MMP-9 [24]: 8 | % hydrolysis (substrate phage ELISA) [25]: 38% | % hydrolysis (substrate phage ELISA) [26]: 30% | % hydrolysis (substrate phage ELISA) [27]: 30% | % hydrolysis (substrate phage ELISA) [28]: 81% | % hydrolysis (substrate phage ELISA) [29]: 100% | selectivity ratio: kcat/Km for MMP-2 divided by kcat/Km for MMP-7 [30]: 13 | selectivity ratio: kcat/Km for MMP-2 divided by kcat/Km for MMP-9 [30]: 15 | selectivity ratio: kcat/Km for MMP-2 divided by kcat/Km for MMP-13 [30]: 28 | % hydrolysis (substrate phage ELISA) [31]: 97% | % hydrolysis (substrate phage ELISA) [32]: 51% | peptide hydrolysis (kcat/Km), compared with MMP-9 [7]: the proline-containing peptides remained better substrates for MMP-2 (data not shown) | selectivity ratio: kcat/Km for MMP-2 divided by kcat/Km for MMP-7 [33]: 6 | selectivity ratio: kcat/Km for MMP-2 divided by kcat/Km for MMP-9 [33]: 14 | selectivity ratio: kcat/Km for MMP-2 divided by kcat/Km for MMP-13 [33]: 13 | % hydrolysis (substrate phage ELISA) [34]: 48% | % hydrolysis (substrate phage ELISA) [35]: 100% | selectivity ratio: kcat/Km for MMP-2 divided by kcat/Km for MMP-7 [36]: 21 | selectivity ratio: kcat/Km for MMP-2 divided by kcat/Km for MMP-9 [36]: 2 | selectivity ratio: kcat/Km for MMP-2 divided by kcat/Km for MMP-13 [36]: 14 | % hydrolysis (substrate phage ELISA) [37]: 100% | % hydrolysis (substrate phage ELISA) [38]: 30% | % hydrolysis (substrate phage ELISA) [39]: 80% | % hydrolysis (substrate phage ELISA) [40]: 19% | % hydrolysis (substrate phage ELISA) [41]: 98% | % hydrolysis (substrate phage ELISA) [42]: 72% | % hydrolysis (substrate phage ELISA) [43]: 60% | % hydrolysis (substrate phage ELISA) [44]: 100% | % hydrolysis (substrate phage ELISA) [45]: 28% | selectivity ratio: kcat/Km for MMP-2 divided by kcat/Km for MMP-7 [46]: 84 | selectivity ratio: kcat/Km for MMP-2 divided by kcat/Km for MMP-9 [46]: 40 | selectivity ratio: kcat/Km for MMP-2 divided by kcat/Km for MMP-13 [46]: 24 | % hydrolysis (substrate phage ELISA) [47]: 100% | % hydrolysis (substrate phage ELISA) [48]: 30% | selectivity ratio: kcat/Km for MMP-2 divided by kcat/Km for MMP-7 [49]: 354 | selectivity ratio: kcat/Km for MMP-2 divided by kcat/Km for MMP-9 [49]: 108 | selectivity ratio: kcat/Km for MMP-2 divided by kcat/Km for MMP-13 [49]: 140
